# Assay: soluble on expression in E. coli; label from the status in PepcDB or PDB records
row,Sequence,soluble on expression in E. coli
1,MSPHPPQPHPPMPPMPPVTAPPGAMTPMPPVPADAQKLHQSTGNDACIKRLQQLNVEDGAKMYMKPTEPGKMGRPVDIQTNVFGIEVTKETTVHRFMVHAKADLTSTKEVTFTKKGKEDFVVQDRRDKCCNIFFLAVEKNPEFFKMKDGNQIVYDGQSTLYTTVNLFSELDANGTKSKVFQINGADTGNDDLKTLPCISLEIYAPRDNSITLSSENLGKRTADQNIEVNNREYTQFLELALNQHCVRETNRFGCFEHGKVYFLNATEEGFDQRDCVDVGDGKQLYPGLKKTIQFIEGPYGRGQNNPSLVIDGMKAAFHKEQTVIQKLFDITGQDPSNGLNNMTREKAAAVIKGLDCYSTYTNRKRHLRIEGIFHESATKTRFELPDGKTCSIAEYYADKYKISLQYPNANLVVCKDRGNNNYFPAELMTVSRNQRVTIPQQTGNQSQKTTKECAVLPDVRQRMIITGKNAVNITLENELLVALGIKVYSEPLMVQARELDGKELVYQRSVMSDMGKWRAPPGWFVKPATVPDLWAAYAVGNPGCRFSIGDVNQLVGMFIDSCKKKGMVIKPPCETGLYSTEKIMTQLEKVAASKCKYVLMITDDAIVHLHKQYKALEQRTMMIVQDMKISKANAVVKDGKRLTLENIINKTNVKLGGLNYTVSDAKKSMTDEQLIIGVGVSAPPAGTKYMMDNKGHLNPQIIGFASNAVANHEFVGDFVLAPSGQDTMASIEDVLQNSIDLFEKNRKALPKRIIIYRSGASEGSHASILAYEIPLARAIIHGYSKEIKLIFIVVTKEHSYRFFRDQLRSGGKATEMNIPPGIVLDNAVTNPACKQFFLNGHTTLQGTAKTPLYTVLADDCKAPMDRLEELTFTLCHHHQIVSLSTSIPTPLYVANEYAKRGRDLWGELTTKGPIEAKESQGERLKELTKEIGYKQTDLNQKRVNA,not soluble
2,MGSDKIHHHHHHMHHSHHLEIYEKLREKLNKAPIGLPKTVSGVEKELLSVLFDEEEAKIAVHMPFIRFTAEQLAERTGKSLEYVEKILNEMAKKGTVWKGEKDGQTYYRLFPVIVGFAETPFWPGPGKDPRQEKLARLWSQYRKEGFLDEIGDREHPIMRALPERDTISEKSEILPYEDAVKLVKERDYIAVGYCPCRVMARLVGEGCRHSIENCIHMGSVGKYMVEHGLGRRISADEAIEILRQSNREGLVHLTERSKHVATICNCCSDCCVFFKAVHEAKHPNTIAHSSYLATVDTSRCIACGICMLRCPMKAIKAKINREPASVDAEKCLGCGVCVPTCPMEAIELVERDELLELPDGMTYVQELLADKGRDPSGLF,not soluble
3,MKTFGLLGGLAYPSTAEYYLKINRQVHATLGKHHSAPLWIHSFDFEPIAQAQASGSWTILEEKLLQAALELERLGCQGLAIASNTMHLLAPALEGALSIPLVHIADSVGEESSLKGYKKLALLGTLFTMEKDFYASRLQERFDLEVITPAKEERNLVHECIYRELVNNIFTEDSRRDFIQIIHGLKERGAEAVILGCTEIPLLLEGASSPLPLLDTMELHVGSIVQSILEI,not soluble
4,SAAETRNVAGAEAPPPQKRYYRQRAHSNPMADHTLRYPVKPEEMDWSELYPEFFAPLTQNQSHDDPKDKKEKRAQAQVEFADIGCGYGGLLVELSPLFPDTLILGLEIRVKVSDYVQDRIRALRAAPAGGFQNIACLRSNAMKHLPNFFYKGQLTKMFFLFPDPHFKRTKHKWRIISPTLLAEYAYVLRVGGLVYTITDVLELHDWMCTHFEEHPLFERVPLEDLSEDPVVGHLGTSTEEGKKVLRNGGKNFPAIFRRIQDPVLQAVTSQTSLPGH,soluble
5,MGSDKIHHHHHHMLANLNQAMDYIEEHLTEEVSFDELAKKTGISVYHFKRTFSFITGMSLAEYIKKRPLAEANLALLAGEKVTDVAFKYGYQSIEGFSRAFRDWSGQAPSEVMKTQIQKTFPKFSFYIDIKGGQSMDVKLIEKPAFQIVGVSQKVPLQYQGENQAIMELAQRITPQQRAEMHTFDDIYPHQVVNASFDFQEGRTTEGGEMTHMIGFATSQENTYEDLEQLSVPAHTWAVFPNEGPFPQTLQETWAKIFSEWLPSSGYQVVAAPEISFTQYQGPAEAKYSEIWLAVTATK,not soluble
6,MNFQKLLKEAQKAQKKAAEVQERLERMTVVGSAQGLVEVEANGHGKILALRLKPEALKAFQDDPEGLEDLLLVAIQDAQTKAHELSEKEMAKELGGVGQMLGKLF,soluble
7,MSFEKLQKELHEAIEGVNRYNPENVADLAACVQAMVNENKYDKDIVLTILKLYQLNPEKYDEAVVRQVLLKTLMVLPSSDFALAKCLIDTNRLGSQELRRIFDLGAVLESCNFAVFWKLVKGAYKPTTNPNEPFKVPGEVPKMIKPMVGFEDAVKHYACRVISVTFQKIEKKMLSRLLGGASDKEVTALAQSFGWEAKENGDVFFVANHEGTIKTRNIDEKIQFPHVADLLTSIQPPLTL,not soluble
8,MGSDKIHHHHHHMMKTELHFKKSLLVSAVALATFALAGCANTAPQGKYVDGVHHVSGKGKKSDITLEVKVEQGNITQVKTLSHKETESLYLNAERLLPEIVSHNGHEGIDAISGATYSSNGILKAINDLPRIDGTKPEYQSVGARSQTGDDDFKLKWSIQPRLGLVKGDYYFEEARFRQGHMGSMLVVVDSNNLQDVILAEFNESGRPNYYTRLYQNVPKRMSEYNFSMGKKKGTAWVQSALTMEKLMMEKDQLTFELNPNYDPKLGNQLTEPNRLKYQGIDIVAGASNSIQQSMIPLTAKIHNRIQAGASDALFYQQAEKLLDEKGRWTGVTAMLRLVVDKNSHKITHAHYDEIFADEKKDIQDASLKAFYRQSKYDSINYVEPARIGFNVMIDALSLHLKEGGSLFNINDLPAAGDTGSYAQTGFTKRSDAWDNYLRLAGILYKQMRADGVINEHALPAQ,not soluble
9,MASVHGTTYELLRRQGIDTVFGNPGSNELPFLKDFPEDFRYILALQEACVVGIADGYAQASRKPAFINLHSAAGTGNAMGALSNAWNSHSPLIVTAGQQTRAMIGVEALLTNVDAANLPRPLVKWSYEPASAAEVPHAMSRAIHMASMAPQGPVYLSVPYDDWDKDADPQSHHLFDRHVSSSVRLNDQDLDILVKALNSASNPAIVLGPDVDAANANADCVMLAERLKAPVWVAPSAPRCPFPTRHPCFRGLMPAGIAAISQLLEGHDVVLVIGAPVFRYHQYDPGQYLKPGTRLISVTCDPLEAARAPMGDAIVADIGAMASALANLVEESSRQLPTAAPEPAKVDQDAGRLHPETVFDTLNDMAPENAIYLNESTSTTAQMWQRLNMRNPGSYYFCAAGGLGFALPAAIGVQLAEPERQVIAVIGDGSANYSISALWTAAQYNIPTIFVIMNNGTYGALRWFAGVLEAENVPGLDVPGIDFRALAKGYGVQALKADNLEQLKGSLQEALSAKGPVLIEVSTVSPVKHHHHHH,soluble
10,LTTRDFDRTGRPLRFTELGFGSSPLGNLYRAISEEEAQALLERAWAGGIRYFDTAPLYGYGLAEERLGRFLAGHPRSDYVLSTKVGRLLRPVEPGEARDGLGKFFEVPERKERFDYGYDGVMRSLEASLDRLGLDRVDVLYAHDLDLFTHGSQEALEARLAEFMAGGYRALVELRDQGVISAFGAGVNEWQPCQWLAERGEFDLFLLAGRYTLLEQEALESFLPLAEERGIGIVIGGPYNSGVLATGPKPGSFYDYRLAPQAVLDRVAQIHTICERWGVRMFEAAFQFPLRHPAVLSVIPGPQSVGEVMENRIAADAELPPGLWEDLKVAGLLRPD,soluble
11,MHGKRIALCASRKLDEMTTLIEKQGGTAIIRPAQGTVFSKGSELGEEMRTVIAMRPDWIVFTTGIGFEALLEAADREGMAAQWHRTIKEANVAARGYKTVTALKQIGVTPVAVSEDGTTKGLIAALYGHDFADKNVVVQLYGDTAPALKQFFLEQGALYTELLPYRHIAPDEETLATLYKEIVGREVDAVCFTSAMQVRFFFSFAREKKEIAPLLDAFRTDVVACAVGKVTKEALEEEGVDRVIAPEHERMGAMIVTLARYFGA,not soluble
12,MGSDKIHHHHHHMRRLPPLNALQIFETVARHRSFTRAADHLCLTQGAVSRQIIALEDYYKFPLFKRHAKGLTLTAEGELLLPAVKESFARIEEISLRLTRQRTDLALKVPTCVMRWMLPKIMRFQAEYPELHVQITTTWQHDVDFQLEPFDAAIIYGSSPGADVQAVPLFEERLTPVCAPDLLKDKPLAELADLARHTLLHPTRDHRDWKMWLARVTEMGAANAPVIDAEHGPSFDTLDMATNAALQGFGVAISDLALIDEDVAAKRLVRPFDTVLKTGWRYYFVYPDSVAHQQKLNLFRDWIAAHWEE,not soluble
13,MTDYFTAHDVLKKVEGLNSLSTLNKWANFIQKECDYQFHYDYIRFASHTRTKRTINHRKTRMFSLEEIQKFQKVIKLIPILGRNTSLRKLFDKKHHLDTMNHSELLTEIINQIEVKLANKEELFQALTKKYQQLERSYQTLEQRLAQLEESLSTQEQTSSGWFRRKR,not soluble
14,MSKILVIAEHRRNDLRPVSLELIGAANGLKKSGEDKVVVAVIGSQADAFVPALSVNGVDELVVVKGSSIDFDPDVFEASVSALIAAHNPSVVLLPHSVDSLGYASSLASKTGYGFATDVYIVEYQGDELVATRGGYNQKVNVEVDFPGKSTVVLTIRPSVFKPLEGAGSPVVSNVDAPSVQSRSQNKDYVEVGGGNDIDITTVDFIMSIGRGIGEETNVEQFRELADEAGATLCCSAPIADAGWLPKSRQVGQSGKVVGSCKLYVAMGISGSIQHMAGMKHVPTIIAVNTDPGASIFTIAKYGIVADIFDIEEELKAQLAA,soluble
15,ERIQQFYFEVKNKDKFEALCRIIDVEEPETTIIFCRTKRGVDELVESMQFRGYNVEGMHGDMSQNQRINTLKKFKENNIDFLVATDVAARGIDVHNVSHVINYDIPQDMESYVHRIGRTGRANAEGIAYSLVTPREYVMIKQIEKFTKSKIRRKEIPTIDDIFETKYNTLTDKITKNIEKDDFKKYIPFVQKLDDEFNLVDVSAALVKMIFDKEMGFDYSDDDKLKSDESVR,not soluble
16,SRFTISAAKPEDCKDIERMIMELAVYENMPDQVKISHKELERDGFGPNPFYHCLVAEVPEEHKSKDGNTTVGYVIFFYTYSTWKGRTVYMEDLYVMPEFRGNGIGKALLGAVAKEAKDQLCSRLQFSVLDWNKPSLDFYMAKGAEDLTAKEGWHFLRFHGMALDNLAQEAP,soluble
17,MGSDKIHHHHHHMQLEVMEHYGIIKYFRDADYFETEHQRRIFNQLKKVIPEGQLIALSGVVGSGKTTTLSRLQDLLAKEKKVIVAKSLSVEKTKTNLGTLITALFYDVSGDKDYRVPKLGEKRERELRDLIQDVKKPVVLLVDEAHDLHHRTLTGLKRLMEVIRDGGGKLSILLAGHPKLKNDLKGPTMEEVGYRTIVVSLDAMQGNLREYVYWLLDNCTDDKTKPTDVIEEQAIDYLVERLTTPLQIEQHLSLALEEGFNVGVKPITVDVLDLTLSRRINDIEPRLIRHGYSEKVLVDQFHYKPAELRKFFKGELDANRVKEITQDLREAGLPI,not soluble
18,MGSDKIHHHHHHMSLFNIFDVSGSGMAAQSIRLNTTASNIANADSVSSSVDKTYRARHPIFEAELNKAHDQQNGTKGVQVRAIVESDKPLLKEYSPSHPMADGDGFIYKPNVNVMEEMADMISASRSYQMNVQVADATKTMLQQTLRMGK,not soluble
19,MGHHHHHHSHLKKNEQNFKLAGVKKDIEKLYEAVPQLSNVFKIEDKIGEGTFSSVYLATAQLQVGPEEKIALKHLIPTSHPIRIAAELQCLTVAGGQDNVMGVKYCFRKNDHVVIAMPYLEHESFLDILNSLSFQEVREYMLNLFKALKRIHQFGIVHRDVKPSNFLYNRRLKKYALVDFGLAQGTHDTKIELLKFVQSEAQQERCSQNKSHIITGNKIPLSGPVPKELDQQSTTKASVKRPYTNAQIQIKQGKDGKEGSVGLSVQRSVFGERNFNIHSSISHESPAVKLMKQSKTVDVLSRKLATKKKAISTKVMNSAVMRKTASSCPASLTCDCYATDKVCSICLSRRQQVAPRAGTPGFRAPEVLTKCPNQTTAIDMWSAGVIFLSLLSGRYPFYKASDDLTALAQIMTIRGSRETIQAAKTFGKSILCSKEVPAQDLRKLCERLRGMDSSTPKLTSDIQGHASHQPAISEKTDHKASCLVQTPPGQYSGNSFKKGDSNSCEHCFDEYNTNLEGWNEVPDEAYDLLDKLLDLNPASRITAEEALLHPFFKDMSL,not soluble

# Source: the DeepSol protein solubility set
